The record followed here is PMC4772626.

The test concerns the target SMV helper component protease tagged with the Flag epitope at the N-terminus (soybean mosaic virus strain G7H). The test is described as follows: affinity purification with mass spectrometry; crude extract of upper symptomatic soybean leaves at 15 dpi (20 mM Tris-HCl pH 7.5, 300 mM NaCl, 5 mM MgCl2, 5 mM dithiothreitol, 0.5% Triton X-100); anti-Flag antibody-conjugated agarose beads 16 h at 4 °C, five washes; 10% SDS-PAGE, Coomassie blue, dominant bands excised and identified by LC-MS/MS; Flag-tagged GFP as negative control.

Where “and” joins values, the source holds several entries; their conditions need not be identical. Equal entries are not always repeated.

The term stoichiometry N denotes a count of units in the complex or per binding partner.

As to “SMV helper component protease tagged with the Flag epitope at the N-terminus (natural protein)”, the stoichiometry N is 4 and 2.
